Changes are numbered by the printed parent chain. Blank lines part the entries; values can stand above or below the binder they belong to.
How the values were obtained:
human CD276 protein [1] = target: T1, human CD276 protein (human, UniProt Q5ZPR3 29-534); assay: cell-based or functional assay
T1 sequence (looked up): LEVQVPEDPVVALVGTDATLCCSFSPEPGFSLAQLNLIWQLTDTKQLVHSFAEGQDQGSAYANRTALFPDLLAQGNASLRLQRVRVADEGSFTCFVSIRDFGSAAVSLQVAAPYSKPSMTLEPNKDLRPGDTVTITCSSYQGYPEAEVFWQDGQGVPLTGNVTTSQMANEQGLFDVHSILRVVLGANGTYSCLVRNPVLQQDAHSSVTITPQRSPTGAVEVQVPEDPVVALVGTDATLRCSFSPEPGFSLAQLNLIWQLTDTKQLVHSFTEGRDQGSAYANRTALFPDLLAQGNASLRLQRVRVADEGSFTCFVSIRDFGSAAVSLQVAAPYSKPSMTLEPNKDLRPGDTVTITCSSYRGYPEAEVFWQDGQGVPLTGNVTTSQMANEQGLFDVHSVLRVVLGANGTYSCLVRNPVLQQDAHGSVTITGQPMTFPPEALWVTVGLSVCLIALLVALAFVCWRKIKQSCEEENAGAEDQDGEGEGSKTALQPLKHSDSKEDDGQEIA

human CD276 protein [2] = target: T1, human CD276 protein; assay: FACS on SKOV3 cells
Excerpt: Sequences of 31 mouse antibodies from Table 5 were selected to generate and produce human IgG1 chimeric antibodies. The binding affinity of these antibodies and bench mark antibody, Enoblituzumab (see U.S. Pat. No. 8,802,091, MGA271, specifically with a construct designated as hBRCA84D-2) and MGC018 (an antibody-drug-conjugate, in which the mAb MGA017 (human IgG1) is conjugated via a cleavable linker to the prodrug seco-DUocarmycin hydroxyBenzamide Azaindole (DUBA), an alkylating agent that can damage DNA in both dividing and non-dividing cells, thereby causing cell death) with human patient derived ovarian cancer cell line, SKOV3, was determined by FACS analysis.
1. Digested cells using Trypsin (1×); Centrifuged the harvested cells at 300 g for 3 min and discarding the supernatant. […] 2. Washed the cells 2 times with FACS buffer by centrifuging at 300 g for 3 min and discarding the supernatant. [0445] 3. […] Kept the cells in dark for FACS analysis.

human CD276 protein [3] = target: T1, human CD276 protein; assay: FACS on CHO-S-hCD276 cells
In short: (§1)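 Cross-reactivity checked by FACS on CHO-S cells stably over-expressing the respective CD276, with parental CHO-S as control. Cells incubated with subclone antibodies, bound primary detected with fluorescent dye-conjugated secondary antibody; read-out is median fluorescence intensity.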

mouse CD276 protein = target: T2, mouse CD276 protein (mouse, UniProt Q8VE98 29-316); assay: FACS on CHO-S-mCD276 cells
T2 construct: whole, on cells; also called mCD276; CHO-S-mCD276
T2 sequence (looked up): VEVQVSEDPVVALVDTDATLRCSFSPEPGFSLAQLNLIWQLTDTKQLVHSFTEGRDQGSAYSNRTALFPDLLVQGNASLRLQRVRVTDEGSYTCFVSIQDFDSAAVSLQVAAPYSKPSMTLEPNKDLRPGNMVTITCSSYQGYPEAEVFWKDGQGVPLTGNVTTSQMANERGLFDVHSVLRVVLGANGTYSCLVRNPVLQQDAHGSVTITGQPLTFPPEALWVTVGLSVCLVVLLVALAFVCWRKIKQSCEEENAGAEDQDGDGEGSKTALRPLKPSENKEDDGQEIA
In short: as §1

[4] = target: T3, Macaca fascicularis CD276 (Macaca fascicularis); assay: FACS on CHO-S-cynoCD276 cells
T3 construct: whole, on cells; also called cynomolgus monkey CD276; cynoCD276
In short: as §1

- EC50 of antibody induced ADCC effect on SKOV3 (human CD276 protein [1]): 4.05 µg/mL
B1: 9-E8-F9-C10 (human IgG1 chimeric antibody) (antibody, V domains shown)
VH: EVQLQQSGAELVRPGTSVKISCKASGYAFSDYWLSWVKQRPGHGLEWIGDICPGSGNIYYNERFKDKVILTADRSSSTAYLQFSSLTSEDSVVYFCTRLITRVIDYWGQGTSVTVST
VL: ENVLTQSPAIMSASPGEKVTMTCSASSSVNYMHWYQQKSSTSPKLWIYDTSKLSSGVPGRFSGSGSGNSYSLTISSMEAEDVATYYCFQGSGYPLTFGAGTKLELK

- EC50 of antibody induced ADCC effect on SKOV3 (human CD276 protein [1]): 13.6 µg/mL
- EC50 (human CD276 protein [2]): 3.66 µg/mL
- MFI (Max) (human CD276 protein [2]): 292
B2: 9-G2-H6-E4 (human IgG1 chimeric antibody) (antibody, V domains shown)
VH: EVQLQQSGPDLVKPGASVKISCKASGYSFTGYFMNWVKQRHGKSLEWIGYINPNNGDTIYNQKFKGKATLTVDKSSSTAHMELLSLTSEDSAVYYCGRGGLPFGALDYWGQGTSVTVSS
VL: DIVMSQSPSSLAVSVGEKVNMSCKSSQSLLYSRNQKNYLAWNQQKPGQSPKLLIYWASARESGVPDRFTGSGSGTDFTLTISSVKAEDLAAYYCQQYHSYPYTFGGGTKLELK
notes: human IgG1 chimeric antibody of the mouse clone

- EC50 of antibody induced ADCC effect on SKOV3 (human CD276 protein [1]): 0.00898 µg/mL
- EC50 (human CD276 protein [2]): 0.509 µg/mL
- MFI (Max) (human CD276 protein [2]): 1210
B3: 3-G7-D8-D3 (human IgG1 chimeric antibody) (antibody, V domains shown)
VH: QVQLQQSGAELARPGTSVKLSCKASGYTFTTYWIQWVKQRPGQGLEWIGAIYPGDGDTRYTQKFKGKATLTADKSSSTAYMQLSTLASEDSAVYYCARPYDGYYIDYPMDSWGQGTSVTVSS
VL: QIVLTQSPAIMSASPGEKVTMTCSASSRINYMHWYQQKPGTSPIIWIYDTSKLASGVPARFSGSGSGTSYSLTISSMEAEDAATYYCHQRSSYPFTFGSGTKLEIK
notes: as for B2

- EC50 of antibody induced ADCC effect on SKOV3 (human CD276 protein [1]): 0.252 µg/mL
- EC50 (human CD276 protein [2]): 1.62 µg/mL
- MFI (Max) (human CD276 protein [2]): 2730
B4: 14-E7-G9-D4 (human IgG1 chimeric antibody) (antibody, V domains shown)
VH: EVQLQQSGPELVKPGASVKMSCKASGYTFTNYIMHWVKQKPGQGLEWIGYINPYNDGIKYNEKFKGKATLTSDKSSSTAYMELSSLTSEDSAVYYCTRWGNYVFYYTMDYWGQGTSVTVSS
VL: QIVLSQSPAILSASPGEKVTMTCRASSSVSYMHWYQQKPGSSPKPWIYATSNLASGVPARFSGSGSGTSYSLTISRMEAEDAATYYCQQWSGNPPLTFGAGTKLELK
notes: as for B2

- EC50 of antibody induced ADCC effect on SKOV3 (human CD276 protein [1]): 1.55 µg/mL
B5: 5-D1-G6-D9 (human IgG1 chimeric antibody) (antibody, V domains shown)
VH: EVQLQESGAELVKPGASVKLSCKTSGLTFSTNYISWLKQKPGQSLEWIAWIYGGNGGTSYNQRFTGKAQLTVDTSSSTAYMQFSSLTTEDSAIYYCTSHDYYGGPMDYWGQGTSVTVSS
VL: DIQMTQTTSSLSASLGDRVTISCRASQDISNYLNWYQQKPDGTVKLLIYFTSRLHSGVPSRFSASGSGTDYSLTISNLEQEDIATYFCQQTNTLPWTFGGGTKLEIK

- EC50 of antibody induced ADCC effect on SKOV3 (human CD276 protein [1]): 4.21 µg/mL
B6: 2-A7-B10-A3 (human IgG1 chimeric antibody) (antibody, V domains shown)
VH: QVQLQQSGAELVRPGVSVKISCKGSGYTFTDYAMHWVKQSHAKSLEWIGVINTNYVNTSYNQKFKGKATMTVDKSSSTAFMELARLTSEDSAIYYCARGGKYGNYVFFFAYWGQGTLVTVSA
VL: B5 VL with F50Y, A64G, T91G, W96Y

- EC50 of antibody induced ADCC effect on SKOV3 (human CD276 protein [1]): 0.137 µg/mL
- EC50 (human CD276 protein [2]): 4.42 µg/mL
- MFI (Max) (human CD276 protein [2]): 6720
B7: 23-F10-G4-F11 (human IgG1 chimeric antibody) (antibody, V domains shown)
VH: EVQLQESGPDLVRPGALVKLSCKSSGFNIKDYPIHWVRQRPEQGLEWIGWFDPDNGNVIYDPRFQGKASITADTSSNTAYLQLNSLTSEDTAVYYCSSPYGAMDYWGQGTSVTVSS
VL: QIVLTQSPEIMSASPGEKVTMTCSASSSVSYIHWYQQKSGTSPKRWIYDTSKLASGVPARFSGSGSGTSYSLTIRSMEAEDAATYYCQQGSSNPRTFGGGTKLEIK
notes: as for B2

- EC50 of antibody induced ADCC effect on SKOV3 (human CD276 protein [1]): 0.103 µg/mL
- EC50 (human CD276 protein [2]): 0.542 µg/mL
- MFI (Max) (human CD276 protein [2]): 4750
B8: 27-E7-D8-C7 (human IgG1 chimeric antibody) (antibody, V domains shown)
VH: EVQLQESGPELVRPGVSVKISCKGSGYTFTDYAMHWVKQSHAKSLEWIGVINTYSDNTNYNRKFKGKATMTVDKSSSTAYMELARLTSEDSAIYYCARGLLLRSQLGVYFDYWGQGTTLTVSS
VL: QIVLSQSPAILSASPGEKVTMTCRASSSVSYMHWYQQKPGSSPKPWIYATSNLASGVPARFSGSGSGTSYSLTISRVEAEDAATYYCQQWSSNPWTFGGGTKLEIK
notes: as for B2

- EC50 of antibody induced ADCC effect on SKOV3 (human CD276 protein [1]): 3.01 µg/mL
- EC50 (human CD276 protein [2]): 1.11 µg/mL
- MFI (Max) (human CD276 protein [2]): 3010
B9: 20-F8-B5-G2 (human IgG1 chimeric antibody) (antibody, V domains shown)
VH: EVQLQESGPSLVKPSQTLSLTCSVTGDSITSAYWNWIRKFPGNKLEYMGYISNSGSTYYNPSLKSRISITRDTSKNQYYLQLNSVTTEDTGTYYCVRGERYYGYGAYWGQGTLVTVSA
VL: DIVMTQATPSVPVTPGESISISCRSSKSLLHSNGNTYLYWFLQRPGQSPQLLIYRMSNLASGVPDRFSGSGSGTAFTLRISRVEAEDVGVYYCMQHLEYPFTFGAGTKLELK
notes: as for B2

- EC50 of antibody induced ADCC effect on SKOV3 (human CD276 protein [1]): 17.3 µg/mL
- EC50 (human CD276 protein [2]): 0.536 µg/mL
- MFI (Max) (human CD276 protein [2]): 3750
B10: 11-G10-B4-B11 (human IgG1 chimeric antibody) (antibody, V domains shown)
VH: DVQLQESGPGLVKPSQSLSLTCTVTGYSITSDYAWNWIRQFPGNKLEWMGYISYSGSTSYNPSLKSRISITRDTSKNQFFLQLNSVTTEDTATYYCARGGPWFAYWGQGTLVTVSA
VL: DVVMTQTPLSLPVSLGDQASISCRSSQSLVHSNGNTYLHWYLQKPGQSPKLLIYKVSNRFSGVPDRFSGSGSGTDFTLKISRVEAEDLGVYFCSQSTHVPFTFGSGTKLEIK
notes: as for B2

- EC50 of antibody induced ADCC effect on SKOV3 (human CD276 protein [1]): 0.648 µg/mL
- EC50 (human CD276 protein [2]): 0.723 µg/mL
- MFI (Max) (human CD276 protein [2]): 2720
B11: 21-B3-B1-H5 (human IgG1 chimeric antibody) (antibody, V domains shown)
VH: QIQLVQSGPELKKPGETVKISCKASGYIFRNYGMNWVKQAPGKGLKWMGWINSYTGKPTYVDDFKGRFAFSLETSASTAYLQINNLKNEDMATYFCARDDGYWYTMDYWGQGTSVTVSS
VL: B10 VL with N35H, F101W, S105G
notes: as for B2

- FACS MFI (human CD276 protein [3]): 32800
- FACS MFI (mouse CD276 protein): 2800
- FACS MFI [4]: 26400
B12: 11-G10-B4-B11 (antibody, V domains shown)
VH: B10 VH
VL: B10 VL
notes: mouse monoclonal antibody (hybridoma)

- FACS MFI (human CD276 protein [3]): 23200
- FACS MFI (mouse CD276 protein): 1320
- FACS MFI [4]: 6190
B13: 16-G3-D10-C10 (antibody, V domains shown)
VH: B11 VH with I28T, A40G, G44D, S53P, K57E, V61I, D62G, S77N, T78S, K87N
VL: B10 VL with L9P, S22P, N35I, F101W, S105G
notes: as for B12

- FACS MFI (human CD276 protein [3]): 71500
- FACS MFI (mouse CD276 protein): 1340
- FACS MFI [4]: 20200
B14: 21-B3-B1-H5 (antibody, V domains shown)
VH: B11 VH
VL: B10 VL with N35H, F101W, S105G
notes: as for B12

- FACS MFI (human CD276 protein [3]): 47500
- FACS MFI (mouse CD276 protein): 1310
- FACS MFI [4]: 63100
B15: 26-D2-D6-B12 (antibody, V domains shown)
VH: B11 VH
VL: B10 VL with N35H, F101W, S105G
notes: as for B12

- FACS MFI (human CD276 protein [3]): 41900
- FACS MFI (mouse CD276 protein): 1340
- FACS MFI [4]: 5140
B16: 11-C12-F4-F6 (antibody, V domains shown)
VH: B11 VH with I28T, Y32F, A40G, S53P, K57E, D62G
VL: B10 VL with L9P, S22P, N35I, F101W, S105G
notes: as for B12
